Laboratory results as given in patent US20120316071A1 (published 2012).
One block for each binder: values may come before it.

Legend:
[1] = biological target: T1, rHuman P-Cadherin/Fc Chimera, CF (R&D Systems Cat#861-PC) (human, UniProt P22223 108-654); assay: Multispot ECL (MSD) assay, antigen spotted on plate, Fab at 1.56 µM; blank spot 4357
T1 construct: Bought recombinant protein; Fc part of the bought chimera not given

[2] = biological target: T2, rHuman IGF-1 sR, (IGF-1 sR), CF (R&D Systems Cat#391-GR) (human, UniProt P08069 31-932); assay: as above
T2 construct: Bought recombinant soluble receptor; also called insulin-like growth factor-1 soluble receptor

[3] = biological target: T3, rHuman Erythropoietin R/Fc Chimera, CF (R&D Systems Cat#963-ER) (human, UniProt P19235 25-250); assay: as above
T3 construct: Bought recombinant protein; also called EPO R/Fc; Epo R; Fc part of the bought chimera not given
T3 sequence (looked up): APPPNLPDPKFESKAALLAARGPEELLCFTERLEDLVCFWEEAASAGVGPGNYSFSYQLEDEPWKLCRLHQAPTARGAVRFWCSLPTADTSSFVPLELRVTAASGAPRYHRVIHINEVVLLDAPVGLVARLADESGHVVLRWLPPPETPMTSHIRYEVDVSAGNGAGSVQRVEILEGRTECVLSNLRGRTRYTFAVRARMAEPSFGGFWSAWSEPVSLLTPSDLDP

[4] = biological target: T4, rHuman ErbB2/Fc Chimera, CF (R&D Systems Cat#1129-ER) (human, UniProt P04626 23-652); assay: as above
T4 construct: Bought recombinant protein; also called human epidermal growth factor 2 receptor (ErbB2); Fc part of the bought chimera not given

[5] = biological target: T5, rHuman HGF R/c-MET/Fc Chimera, CF (R&D Systems Cat#358-MT/CF) (human, UniProt P08581 25-932); assay: as above
T5 construct: Bought recombinant protein; also called HGF R/Fc; hepatocyte growth factor receptor (HGF R/c-Met); Fc part of the bought chimera not given

[6] = biological target: T6, rHuman CD44/Fc Chimera, CF (R&D Systems Cat#3660-CD) (human, UniProt P16070 21-220); assay: ECL Multispot (MSD), antigen spotted; Fab 500 (µM); blank 439
T6 construct: Bought recombinant protein; Fc part of the bought chimera not given

[7] = biological target: T7, rHuman Notch-1/Fc Chimera, CF (R&D Systems Cat#3647-TK) (human, UniProt P46531 19-526); assay: as above
T7 construct: Bought recombinant protein; Fc part of the bought chimera not given

[8] = biological target: T8, rHuman HGF R/c-MET/Fc Chimera, CF (R&D Systems Cat#358-MT/CF) (human, UniProt P08581 25-932); assay: as above
T8 construct: Bought recombinant protein; also called HGF R/Fc; Fc part of the bought chimera not given

[9] = biological target: T9, rHuman IGF-1 sR, CF (R&D Systems Cat#391-GR) (human, UniProt P08069 31-932); assay: as above
T9 construct: Bought recombinant soluble receptor; also called insulin-like growth factor-1 soluble receptor

[10] = biological target: T10, Recombinant Human DLL4 (R&D Systems Cat#1506-D4/CF) (human, UniProt Q9NR61 27-529); assay: as above
T10 construct: Bought recombinant protein; also called delta-like protein 4; rHuman DLL4

[11] = biological target: T11, rHuman P-Cadherin/Fc Chimera, CF (R&D Systems Cat#861-PC) (human, UniProt P22223 108-654); assay: as above
T11 construct: Bought recombinant protein; Fc part of the bought chimera not given

[12] = biological target: T12, rHuman ErbB2/Fc Chimera, CF (R&D Systems Cat#1129-ER) (human, UniProt P04626 23-652); assay: as above
T12 construct: Bought recombinant protein; Fc part of the bought chimera not given

[13] = biological target: T13, rHuman Erythropoietin R/Fc Chimera, CF (R&D Systems Cat#963-ER) (human, UniProt P19235 25-250); assay: as above
T13 construct: Bought recombinant protein; also called EPO R; EPO R/Fc; Fc part of the bought chimera not given
T13 sequence (looked up): T3 sequence (looked up)

[14] = biological target: T14, rHuman EGF R/Fc Chimera, CF (R&D Systems Cat#344-ER) (human, UniProt P00533 25-645); assay: as above
T14 construct: Bought recombinant protein; Fc part of the bought chimera not given

[15] = biological target: T15, rHuman P-Cadherin/Fc Chimera, CF (R&D Systems Cat#861-PC) (human, UniProt P22223 108-654); assay: MSD multispot ECL, antigen spotted on plate, Fab 88.1 nM; blank spot 301
T15 construct: Bought from R&D Systems; not shown: Fc of the bought chimera

[16] = biological target: T16, rHuman EGF R/Fc Chimera, CF (R&D Systems Cat#344-ER) (human, UniProt P00533 25-645); assay: as above
T16 construct: Bought from R&D Systems; also called epidermal growth factor receptor (EGF R); not shown: Fc of the bought chimera

[17] = biological target: T17, rHuman Notch-1/Fc Chimera, CF (R&D Systems Cat#3647-TK) (human, UniProt P46531 19-526); assay: as above
T17 construct: Bought from R&D Systems; not shown: Fc of the bought chimera

[18] = biological target: T18, rHuman HGF R/c-MET/Fc Chimera, CF (R&D Systems Cat#358-MT/CF) (human, UniProt P08581 25-932); assay: as above
T18 construct: Bought from R&D Systems; also called HGF R/Fc; hepatocyte growth factor receptor (HGF R/c-Met); not shown: Fc of the bought chimera

ECL signal [1]: 15000 | ECL signal [2]: 6910 | ECL signal [3]: 9480 | ECL signal [4]: 7580 | ECL signal [5]: 10300
B1: Fab VH1-46_IGHD7-27*01_IGHJ2*01 & L6_IGKJ1*01 (Fab, V domains shown)
VH: QVQLVQSGAEVKKPGASVKVSCKASGYTFTSYYMHWVRQAPGQGLEWMGIINPSGGSTSYAQKFQGRVTMTRDTSTSTVYMELSSLRSEDTAVYYCARANWGYWYFDLWGRGTLVTVSS
VL: not shown
notes: Germline Fab made in E. coli; VH was cloned in Plasmid A (CH1 constant region, His6 and Flag tags) and the kappa VL in Plasmid C (kappa CL); Only the variable domains are tied to this Fab by name

ECL signal [6]: 874 | ECL signal [7]: 785 | ECL signal [8]: 760 | ECL signal [9]: 613 | ECL signal [10]: 28900 | ECL signal [11]: 1010 | ECL signal [12]: 1580 | ECL signal [13]: 1210 | ECL signal [14]: 1480
B2: Fab VH1-46_IGHD6-6*01_IGHJ1*01 S102A/S103P/S104F (APF) & L6_IGKJ1*01 (Fab, V domains shown)
VH: QVQLVQSGAEVKKPGASVKVSCKASGYTFTSYYMHWVRQAPGQGLEWMGIINPSGGSTSYAQKFQGRVTMTRDTSTSTVYMELSSLRSEDTAVYYCAREEYAPFSAEYFQHWGQGTLVTVSS
VL: not shown
notes: Tested as a Fab made in E. coli: VH cloned in Plasmid A (CH1 constant region, His6 and Flag tags), VL in Plasmid C (kappa constant region); also called H:APF & L:wt; APF triple mutant

ECL signal [15]: 278 | ECL signal [16]: 376 | ECL signal [17]: 440 | ECL signal [18]: 392
B3: Fab VH1-46_IGHD3-10*01_IGHJ4*01 & B3_IGKJ1*01 (Fab, V domains shown)
VH: QVQLVQSGAEVKKPGASVKVSCKASGYTFTSYYMHWVRQAPGQGLEWMGIINPSGGSTSYAQKFQGRVTMTRDTSTSTVYMELSSLRSEDTAVYYCAREYYYGSGSYYNDYFDYWGQGTLVTVSS
VL: not shown
notes: Tested as a Fab made in E. coli; VH was cloned into Plasmid A (CH1 constant region, His6 and Flag tags); The kappa VL was cloned into Plasmid C (kappa CL)
